According to PMC9458455 (Nucleic Acids Research, 2022):

T1: translation elongation factor eEF1Bβ, full-length (human), P29692
T1 chain: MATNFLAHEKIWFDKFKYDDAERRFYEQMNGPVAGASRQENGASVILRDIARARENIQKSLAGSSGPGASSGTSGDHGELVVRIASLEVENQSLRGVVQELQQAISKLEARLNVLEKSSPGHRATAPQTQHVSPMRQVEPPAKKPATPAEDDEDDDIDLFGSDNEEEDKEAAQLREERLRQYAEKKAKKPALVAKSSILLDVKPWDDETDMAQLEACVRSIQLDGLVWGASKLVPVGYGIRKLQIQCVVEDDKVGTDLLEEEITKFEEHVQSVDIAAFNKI


Experiments:
[1] = biological target: eEF1B(αβγ)3 complex, reconstituted from full-length eEF1Bα, eEF1Bβ and eEF1Bγ (human, UniProt P24534 1-225; P29692 1-281; P26641 1-437); test: native gel or EMSA
[2] = biological target: T1, translation elongation factor eEF1Bβ, …; test: AUC; settings: remark: other sources report otherwise
[3] = biological target: T1, translation elongation factor eEF1Bβ, …; test: AUC; settings: remark: other sources report otherwise
[4] = biological target: T1, translation elongation factor eEF1Bβ, …; test: AUC; settings: remark: other sources report otherwise

Chain of eEF1B(αβγ)3 complex, reconstituted from full-length eEF1Bα, eEF1Bβ and eEF1Bγ (P24534 whole entry, chain 1 of 2): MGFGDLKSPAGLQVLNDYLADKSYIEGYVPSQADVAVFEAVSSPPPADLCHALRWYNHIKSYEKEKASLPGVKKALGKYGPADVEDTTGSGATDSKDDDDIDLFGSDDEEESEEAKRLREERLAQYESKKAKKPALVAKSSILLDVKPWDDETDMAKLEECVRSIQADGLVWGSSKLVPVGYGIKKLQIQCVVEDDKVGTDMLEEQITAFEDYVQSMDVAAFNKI
Chain of eEF1B(αβγ)3 complex, reconstituted from full-length eEF1Bα, eEF1Bβ and eEF1Bγ (P26641 whole entry, chain 3 of 2): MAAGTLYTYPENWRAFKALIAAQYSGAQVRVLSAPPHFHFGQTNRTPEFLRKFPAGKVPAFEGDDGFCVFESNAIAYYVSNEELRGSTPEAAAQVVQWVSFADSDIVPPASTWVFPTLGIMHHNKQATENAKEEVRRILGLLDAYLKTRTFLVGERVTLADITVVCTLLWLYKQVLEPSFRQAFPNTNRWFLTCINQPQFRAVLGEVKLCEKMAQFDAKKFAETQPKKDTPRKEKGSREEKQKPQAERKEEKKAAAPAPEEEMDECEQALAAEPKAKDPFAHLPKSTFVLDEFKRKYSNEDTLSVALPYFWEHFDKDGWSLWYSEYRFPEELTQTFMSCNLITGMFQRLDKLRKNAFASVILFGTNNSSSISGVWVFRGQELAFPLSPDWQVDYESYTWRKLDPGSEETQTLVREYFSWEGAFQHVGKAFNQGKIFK

stoichiometry N [1]	stoichiometry N [2]	stoichiometry N [3]	stoichiometry N [4]	Binder
6	–	–	–	translation elongation factor eEF1A2 (natural protein, UniProt Q05639 1-463, looked up) MGKEKTHINIVVIGHVDSGKSTTTGHLIYKCGGIDKRTIEKFEKEAAEMGKGSFKYAWVLDKLKAERERGITIDISLWKFETTKYYITIIDAPGHRDFIKNMITGTSQADCAVLIVAAGVGEFEAGISKNGQTREHALLAYTLGVKQLIVGVNKMDSTEPAYSEKRYDEIVKEVSAYIKKIGYNPATVPFVPISGWHGDNMLEPSPNMPWFKGWKVERKEGNASGVSLLEALDTILPPTRPTDKPLRLPLQDVYKIGGIGTVPVGRVETGILRPGMVVTFAPVNITTEVKSVEMHHEALSEALPGDNVGFNVKNVSVKDIRRGNVCGDSKSDPPQEAAQFTSQVIILNHPGQISAGYSPVIDCHTAHIACKFAELKEKIDRRSGKKLEDNPKSLKSGDAAIVEMVPGKPMCVESFSQYPPLGRFAVRDMRQTVAVGVIKNVEKKSGGAGKVTKSAQKAQKAGK
–	3	3	3	translation elongation factor eEF1Bβ, full-length, P29692 1-281 (natural protein) MATNFLAHEKIWFDKFKYDDAERRFYEQMNGPVAGASRQENGASVILRDIARARENIQKSLAGSSGPGASSGTSGDHGELVVRIASLEVENQSLRGVVQELQQAISKLEARLNVLEKSSPGHRATAPQTQHVSPMRQVEPPAKKPATPAEDDEDDDIDLFGSDNEEEDKEAAQLREERLRQYAEKKAKKPALVAKSSILLDVKPWDDETDMAQLEACVRSIQLDGLVWGASKLVPVGYGIRKLQIQCVVEDDKVGTDLLEEEITKFEEHVQSVDIAAFNKI
